Experimental data from the RNAGym collection of RNA variant scans (doi:10.1021/acssynbio.7b00057).

B1: Pistol ribozyme (parent)
chain: GGGUCGUUGUUCCAUAAUCGCGUGGAUAUGGCACGCAAGUUUCUACCGGGCACCGUAAAUGUCCGACUGGAGCCGUUCGGGCGGCUAUAAACAGACCUCAGGCCCGAAGCGUGGCGGCACCUGCCGCCGGUGGUAAAAAAGAUCGGAAGAGCACACGUCU

Variants of: B1
Experiment: aptazyme ON/OFF ratio, guanine; higher = stronger switching; co-transcriptional cleavage with and without guanine

Row | Variant | aptazyme ON/OFF ratio
1 | U7G U8A G9A U11G C13G | 1.03
2 | U7G U8A G9A U11G C13U | 1.21
3 | U7G U8A G9C U10G U11C C13U | 1.02
4 | U7G U8A G9C U10G U11C C13G | 1.06
5 | U7G U8A G9C U10G U11C C13A | 1.03
6 | U7G U8A G9C U10C U11A C12G C13U | 1.09
7 | U7G U8A G9C U10C U11A C12G C13G | 1.05
8 | U7G U8A G9C U10C U11A C12G C13A | 1.03
9 | U7G U8A G9C U10A U11C C12A C13U | 1.03
10 | U7G U8A G9C U10A U11C C12A C13A | 1.04
11 | U7G U8A G9C U10A U11C C12A C13G | 1.01
12 | U7G U8A G9C U10A U11C C13U | 1.04
13 | U7G U8A G9C U10A U11C C13G | 1.04
14 | U7G U8A G9C U10A U11C C13A | 1.04
15 | U7G U8A G9C U10C C13A | 1.01
16 | U7G U8A G9C U10C C13U | 1.04
17 | U7G U8A G9C U10C C13G | 1.01
18 | U7G U8A G9C U10C | 2.1
19 | U7G U8A G9C U10A | 1.07
20 | U7G U8A G9C U10G | 1.1
21 | U7G U8A G9A U10G U11G C12A C13G | 1.14

Row | Variant | aptazyme ON/OFF ratio
22 | U7G U8A G9A U10G U11G C12A C13U | 1.17
23 | U7G U8A G9A U10G U11G C12A C13A | 1.06
24 | U7G U8A G9C U10C C12G C13G | 1.01
25 | U7G U8A G9C U10C C12G C13A | 1.14
26 | U7G U8A G9C U10C C12G C13U | 1.07
27 | U7G U8A G9C C12G C13G | 1.04
28 | U7G U8A G9C C12G C13U | 1.06
29 | U7G U8A G9C C12G C13A | 1.02
30 | U7G U8A G9C U10A U11G C12U C13A | 1.02
31 | U7G U8A G9C U10A U11G C12U C13U | 1.04
32 | U7G U8A G9C U10A U11G C12U C13G | 1.01
33 | U7G U8A G9A U11C C12U | 1.18
34 | U7G U8A G9A U11C C12A | 1.17
35 | U7G U8A G9A U11C C12G | 1.21
36 | U7G U8A G9C U11A C12G C13A | 1.04
37 | U7G U8A G9C U11A C12G C13U | 1.04
38 | U7G U8A G9C U11A C12G C13G | 1
39 | U7G U8A G9C U10C U11C C13A | 1.03
40 | U7G U8A G9C U10C U11C C13U | 1.03
41 | U7G U8A G9C U10C U11C C13G | 1.01
42 | U7G U8A G9A U11A C13G | 1.02

Row | Variant | aptazyme ON/OFF ratio
43 | U7G U8A G9A U11A C13U | 1.12
44 | U7G U8A G9A U11A C13A | 1.06
45 | U7G U8A G9A U10G U11G C13A | 1.29
46 | U7G U8A G9A U10G U11G C13G | 1.34
47 | U7G U8A G9A U10G U11G C13U | 1.26
48 | U7G U8A G9A U10G U11G C12G C13U | 1.26
49 | U7G U8A G9A U10G U11G C12G C13A | 1.27
50 | U7G U8A G9A U10G U11G C12G C13G | 1.16
51 | U7G U8A G9C U10A U11C C12G C13G | 1.04
52 | U7G U8A G9C U10A U11C C12G C13U | 1.04
53 | U7G U8A G9C U10A U11C C12G C13A | 1.04
54 | U7G U8A G9C C13U | 1.04
55 | U7G U8A G9C C13A | 1.04
56 | U7G U8A G9C C13G | 1.02
57 | U7G U8A G9C C12U | 1.04
58 | U7G U8A G9C C12G | 1.01
59 | U7G U8A G9C C12A | 1.02
60 | U7G U8A G9C U10G C12G C13U | 1.18
61 | U7G U8A G9C U10G C12G C13G | 1.08
62 | U7G U8A G9C U10G C12G C13A | 1.06
63 | U7G U8A G9C U10G U11C C12A C13G | 1.02

Row | Variant | aptazyme ON/OFF ratio
64 | U7G U8A G9C U10G U11C C12A C13U | 1.05
65 | U7G U8A G9C U10G U11C C12A C13A | 1.07
66 | U7G U8A G9A U11G C12G C13G | 1.14
67 | U7G U8A G9A U11G C12G C13A | 1.14
68 | U7G U8A G9A U11G C12G C13U | 1.1
69 | U7G U8A G9A U11G C12U C13A | 1.22
70 | U7G U8A G9A U11G C12U C13U | 1.45
71 | U7G U8A G9A U11G C12U C13G | 1.2
72 | U7G U8A G9A U11G C12A C13A | 1.05
73 | U7G U8A G9A U11G C12A C13U | 1.23
74 | U7G U8A G9A U11G C12A C13G | 1.13
75 | U7G U8A G9C U10C U11A | 0.986
76 | U7G U8A G9C U10C U11C | 1.01
77 | U7G U8A G9C U10C U11G | 1.05
78 | U7G U8A G9A U10G U11G C12U | 1.48
79 | U7G U8A G9A U10G U11G C12A | 1.14
80 | U7G U8A G9A U10G U11G C12G | 1.24
81 | U7G U8A G9C U11A C12U C13A | 1.03
82 | U7G U8A G9C U11A C12U C13U | 1.02
83 | U7G U8A G9C U11A C12U C13G | 1.03
84 | U7G U8A G9C U11A C13U | 1.04
